Laboratory results as given in publication PMC11480844.

B1: H2-Kb / B6 (parent)
chain 1: GDSVTQTEGLVTVTEGLPVKLNCTYQTTYLTIAFFWYVQYLNEAPQVLLKSSTDNKRTEHQGFHATLHKSSSSFHLQKSSAQLSDSALYYCALSLGNAGAKLTFGGGTRLTVRP
chain 2: EAAVTQSPRNKVTVTGGNVTLSCRQTNSHNYMYWYRQDTGHGLRLIHYSYGAGNLQIGDVPDGYKATRTTQEDFFLLLELASPSQTSLYFCASSDGMISSSYEQYFGPGTRLTVL
chain 3: not shown
chain 4: IQKTPQIQVYSRHPPENGKPNILNCYVTQFHPPHIEIQMLKNGKKIPKVEMSDMSFSKDWSFYILAHTEFTPTETDTYACRVKHDSMAEPKTVYWDRDM
chain 5: SIINFEKL
B2: H2-Kb / F5 (parent)
chain 1: GDSVTQTEGLVTLTEGLPVMLNCTYQSTYSPFLFWYVQHLNEAPKLLLKSFTDNKRPEHQGFHATLHKSSSSFHLQKSSAQLSDSALYYCALSPSNMGYKLTFGTGTSLLVDP
chain 2: EAAVTQSPRNKVAVTGGKVTLSCNQTNNHNNMYWYRQDTGHGLRLIHYSYGAGSTEKGDIPDGYKASRPSQENFSLILELATPSQTSVYFCASGDASEQYFGPGTRLTVL
chain 3: not shown
chain 4: B1 chain 4
chain 5: SIINFEKL

Variants of: B1
Assay: % of reporter cells activated (NFAT-GFP), raw
Design: unit not given here
Settings: with B6
Also: test concentration or dose not given here.

Ratio to parent: each site, then its substitutions
chain 5 L8: R 0.812; S 0.53; A 0.53; T 0.55; C 0.725; I 0.758; Y 0.805; E 0.329; W 0.604; P 0.671; Q 0.738; N 0.765; V 0.403; F 0.523; D 0.456; K 0.819; M 0.718; G 1.09; H 0.859
chain 5 I2: T 1.23; E 0.879; G 0.966; P 1.16; M 0.98; C 1.18; L 1.08; W 0.926; Q 0.886; K 1.08; A 1.13; F 1.01; Y 1.07; S 0.987; V 0.987; R 0.765; D 1.07; N 1.2; H 1.15
chain 5 S1: L 1.13; K 0.993; F 1.18; P 0.953; Q 0.926; T 1.07; I 0.919; N 0.872; V 0.826; Y 1; E 1.12; R 0.611; G 1.01; A 1.1; H 1.12; C 1.05; M 0.973; D 1.13; W 1.01
chain 5 F5: S 0.98; H 1.28; W 1.15; E 1.74; M 1; C 1.47; G 1.17; Q 1.07; T 0.993; D 1.25; R 0.765; L 1.08; Y 1.28; I 1.09; P 0.973; N 0.966; A 1.15; V 1.09; K 1.28
chain 5 E6: N 1.07; F 0.792; W 0.758; L 0.866; M 0.946; Y 0.685; C 0.879; V 0.51; G 0.664; P 1; D 0.792; T 0.859; A 1.21; Q 0.872; K 0.872; S 0.852; I 0.55; R 0.711; H 0.919
chain 5 K7: M 0.765; Q 1.09; A 0.832; G 0.913; L 0.785; C 1; Y 0.738; F 0.812; E 1.11; W 0.638; I 0.899; S 0.644; R 0.477; N 0.664; V 0.872; H 0.926; P 0.758; D 0.819; T 0.94
chain 5 I3: C 1.07; T 1.16; P 1.11; F 1.43; V 0.886; Y 1.23; Q 1.06; E 1.03; A 1.17; D 1.01; G 1.01; M 1.13; N 0.913; H 1.01; L 1.11; K 0.98; R 0.678; S 1.15; W 1.19
chain 5 N4: S 1.03; M 2.76; R 1; L 2.7; Q 0.993; D 1.29; V 0.893; W 0.832; F 1.87; P 1.13; I 1.05; T 1.1; K 0.926; E 0.913; A 1.17; G 0.752; H 0.973; C 1.25; Y 0.913

Variants of: B2
Assay: % of reporter cells activated (NFAT-GFP), raw
Settings: with F5; scale: % of reporter cells activated

Ratio to parent, by site and new letter:
chain 5 K7: N 0.386; E 0.184; R 2.89; S 0.775; Q 1.38; M 5.55; F 2.64; W 0.498; Y 0.423; D 0.341; G 0.318; L 3.69; H 0.61; C 0.588; I 2.55; A 0.903; T 1.72; P 0.322; V 2.14
chain 5 L8: M 0.427; I 0.858; W 0.292; A 0.195; G 0.352; C 2.82; P 0.352; Q 0.288; T 0.453; H 1.55; Y 0.742; V 0.521; R 0.345; E 0.285; F 0.247; N 0.21; D 1.91; S 1.39; K 0.633
chain 5 I3: D 0.255; Q 0.464; Y 0.3; T 0.356; M 0.255; H 0.311; S 0.348; P 0.427; L 0.547; R 0.161; N 0.251; C 0.419; K 0.345; W 0.243; F 0.3; E 0.517; G 0.292; V 0.487
chain 5 N4: T 0.337; D 0.21; H 0.36; I 0.315; Q 0.15; P 0.36; C 0.232; A 0.262; K 0.184; E 0.21; R 0.191; F 0.509; V 0.322; W 0.438; L 0.401; M 0.431; S 0.303; Y 0.307; G 0.24
chain 5 S1: V 0.307; R 0.225; N 0.161; D 0.288; E 0.33; T 0.573; M 0.281; G 0.629; L 0.375; K 0.326; Q 0.554; Y 0.337; A 0.521; H 0.337; I 0.262; W 0.292; C 0.296; F 0.262; P 0.315
